From publication PMC3683295

Legend:
BCL-xLΔC (human) = BCL-xLΔC (human) (UniProt Q07817); assay: native gel or EMSA
BCL-xLΔLΔC (human) [1] = biological target: BCL-xLΔLΔC (human) (UniProt Q07817); assay: native gel or EMSA
BCL-xLΔLΔC (human) [2] = biological target: BCL-xLΔLΔC (human) (UniProt Q07817); assay: AUC
BCL-xLΔLΔC (human) [3] = biological target: BCL-xLΔLΔC (human) (UniProt Q07817); assay: NMR solution structure

stoichiometry N (BCL-xLΔC (human))	stoichiometry N (BCL-xLΔLΔC (human) [1])	stoichiometry N (BCL-xLΔLΔC (human) [2])	stoichiometry N (BCL-xLΔLΔC (human) [3])	Substance
2				BCL-xLΔC (from UniProt Q07817-1 1-211) (domain or fragment)
	2			BCL-xLΔLΔC (from UniProt Q07817-1 1-211) (domain or fragment)
1		1	1	PUMA^BH3 (peptide)
